Results taken from publication PMC4279225 (Molecular Biology of the Cell, 2015).
Values belong to the binder of their own block, whether it stands above or below them.

Columns and labels:
SEC = molecular target: the molecule itself; assay: SEC
GST-Orc6, wild type = molecular target: T1, GST-Orc6, wild type (Drosophila, UniProt Q9Y1B2 1-257); assay: pull-down
T1 sequence (looked up): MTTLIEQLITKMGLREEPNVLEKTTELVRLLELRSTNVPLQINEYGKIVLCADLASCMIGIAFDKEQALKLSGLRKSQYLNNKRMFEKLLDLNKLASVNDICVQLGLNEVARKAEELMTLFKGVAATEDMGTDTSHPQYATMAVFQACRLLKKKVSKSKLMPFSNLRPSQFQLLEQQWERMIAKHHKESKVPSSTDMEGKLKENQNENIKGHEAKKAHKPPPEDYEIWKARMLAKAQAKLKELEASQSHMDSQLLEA

His-GFP-Orc6, wild type = molecular target: T2, His-GFP-Orc6, wild type (Drosophila, UniProt Q9Y1B2 1-257); assay: fluorescence polarisation
T2 sequence (looked up): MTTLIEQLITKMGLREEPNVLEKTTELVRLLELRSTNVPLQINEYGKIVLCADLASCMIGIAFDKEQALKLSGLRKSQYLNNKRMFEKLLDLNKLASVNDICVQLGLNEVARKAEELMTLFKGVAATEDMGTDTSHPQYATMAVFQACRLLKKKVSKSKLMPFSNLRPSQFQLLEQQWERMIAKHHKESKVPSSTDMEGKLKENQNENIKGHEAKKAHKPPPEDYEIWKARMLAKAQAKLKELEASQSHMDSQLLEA

[1] = molecular target: T3, Recombinant wild-type septin complex Pnut-Sep2-Sep1 (His tag removed) (Drosophila melanogaster, UniProt P40797 1-539; P54359 1-419; P42207 1-361); assay: negative-stain EM with Ni-NTA Nanogold labelling
T3 sequence (looked up) 1: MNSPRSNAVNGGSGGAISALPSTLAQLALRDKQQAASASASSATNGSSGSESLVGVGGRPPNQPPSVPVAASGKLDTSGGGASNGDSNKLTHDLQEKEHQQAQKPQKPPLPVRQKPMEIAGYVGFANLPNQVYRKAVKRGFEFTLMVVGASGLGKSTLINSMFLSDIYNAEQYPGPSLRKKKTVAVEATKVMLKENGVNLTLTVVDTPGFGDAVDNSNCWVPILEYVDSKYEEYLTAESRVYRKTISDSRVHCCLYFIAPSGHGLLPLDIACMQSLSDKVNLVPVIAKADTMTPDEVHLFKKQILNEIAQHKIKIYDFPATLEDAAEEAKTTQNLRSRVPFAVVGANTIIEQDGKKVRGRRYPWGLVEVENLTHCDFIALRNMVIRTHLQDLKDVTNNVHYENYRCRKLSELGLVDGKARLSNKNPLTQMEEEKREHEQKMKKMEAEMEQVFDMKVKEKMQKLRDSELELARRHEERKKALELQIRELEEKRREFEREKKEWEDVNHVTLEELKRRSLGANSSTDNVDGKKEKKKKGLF
T3 sequence (looked up) 2: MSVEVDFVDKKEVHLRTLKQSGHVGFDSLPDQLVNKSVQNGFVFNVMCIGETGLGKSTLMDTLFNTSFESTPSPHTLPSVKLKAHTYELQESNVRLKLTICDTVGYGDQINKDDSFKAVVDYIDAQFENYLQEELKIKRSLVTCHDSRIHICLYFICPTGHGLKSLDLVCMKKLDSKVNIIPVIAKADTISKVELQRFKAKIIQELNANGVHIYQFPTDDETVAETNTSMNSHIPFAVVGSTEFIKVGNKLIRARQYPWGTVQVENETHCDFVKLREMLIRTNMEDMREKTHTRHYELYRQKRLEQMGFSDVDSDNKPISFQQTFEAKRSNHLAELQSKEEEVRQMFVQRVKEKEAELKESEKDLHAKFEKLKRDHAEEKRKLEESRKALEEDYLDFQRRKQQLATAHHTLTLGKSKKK
T3 sequence (looked up) 3: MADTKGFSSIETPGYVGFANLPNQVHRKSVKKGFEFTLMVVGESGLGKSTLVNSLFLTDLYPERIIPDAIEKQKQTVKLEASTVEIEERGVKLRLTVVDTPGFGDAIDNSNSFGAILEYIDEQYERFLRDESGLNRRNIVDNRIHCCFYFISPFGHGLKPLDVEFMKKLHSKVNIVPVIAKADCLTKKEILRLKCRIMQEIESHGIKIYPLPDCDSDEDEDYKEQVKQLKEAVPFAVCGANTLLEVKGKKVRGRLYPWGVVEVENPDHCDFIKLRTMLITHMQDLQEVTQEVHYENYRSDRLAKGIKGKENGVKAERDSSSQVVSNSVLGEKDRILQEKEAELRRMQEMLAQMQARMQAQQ

- binding result (GST-Orc6, wild type): binds
- binding result (His-GFP-Orc6, wild type): binds
B1: His-Orc6 Δ(200–257), Orc6 with truncated C-terminus (domain or fragment, Drosophila, UniProt Q9Y1B2 1-199, looked up)
chain: MTTLIEQLITKMGLREEPNVLEKTTELVRLLELRSTNVPLQINEYGKIVLCADLASCMIGIAFDKEQALKLSGLRKSQYLNNKRMFEKLLDLNKLASVNDICVQLGLNEVARKAEELMTLFKGVAATEDMGTDTSHPQYATMAVFQACRLLKKKVSKSKLMPFSNLRPSQFQLLEQQWERMIAKHHKESKVPSSTDMEG
- binding result (SEC): binds

- binding result [1]: binds
B2: His-Orc6 Δ(1–186), N-terminus deletion (domain or fragment, Drosophila, UniProt Q9Y1B2 187-257, looked up)
chain: KESKVPSSTDMEGKLKENQNENIKGHEAKKAHKPPPEDYEIWKARMLAKAQAKLKELEASQSHMDSQLLEA

- stoichiometry N [1]: 2.26 ± 0.34 Nanogold particles (His-Orc6 molecules) per septin hexamer
B3: His-Orc6, wild type, Orc6-wt (1–257) (natural protein, Drosophila, UniProt Q9Y1B2 1-257, looked up)
chain: MTTLIEQLITKMGLREEPNVLEKTTELVRLLELRSTNVPLQINEYGKIVLCADLASCMIGIAFDKEQALKLSGLRKSQYLNNKRMFEKLLDLNKLASVNDICVQLGLNEVARKAEELMTLFKGVAATEDMGTDTSHPQYATMAVFQACRLLKKKVSKSKLMPFSNLRPSQFQLLEQQWERMIAKHHKESKVPSSTDMEGKLKENQNENIKGHEAKKAHKPPPEDYEIWKARMLAKAQAKLKELEASQSHMDSQLLEA
- stoichiometry N (SEC): 2
